Tests used:
[1] = target: His6-tagged ComE (response regulator ComE, wild type); experiment: Sandwich fluorescence-linked immunosorbent assay (FLISA); conditions: no added salt stated (50 mM Bis-Tris-Propane-HCl, 1 mM MgCl2), 1 mM MgCl2, pH 7.8 or the same buffer at pH 6.0
[2] = target: His6-tagged ComE T128A (non-phosphorylatable) T128A; experiment: as above; conditions: no added salt stated (50 mM Bis-Tris-Propane-HCl, 1 mM MgCl2), 1 mM MgCl2, pH 7.8 or the same buffer at pH 6.0
[3] = target: His6-tagged ComE T128E (phosphomimetic) T128E; experiment: as above; conditions: no added salt stated (50 mM Bis-Tris-Propane-HCl, 1 mM MgCl2), 1 mM MgCl2, pH 7.8 or the same buffer at pH 6.0
[4] = system: ComE D58E (Hisx6) (Streptococcus pneumoniae R801); experiment: EMSA
[5] = system: ComE T128A (Hisx6) (Streptococcus pneumoniae R801); experiment: EMSA
[6] = system: ComE T128E (Hisx6) (Streptococcus pneumoniae R801); experiment: EMSA
[7] = system: ComE wt (Hisx6) (Streptococcus pneumoniae R801); experiment: EMSA
[8] = pH 6.0, 37°C (binding step, 1 h)
[9] = pH 7.8, 37°C (binding step, 1 h)

Row | Substance | K1/2 [1, 8] [ng] | K1/2 [1, 9] [ng] | K1/2 [2, 8] [ng] | K1/2 [2, 9] [ng] | K1/2 [3, 8] [ng] | K1/2 [3, 9] [ng] | Kd [4] [nM] | Kd [5] [nM] | Kd [6] [nM] | Kd [7] [nM]
1 | GST-StkP (serine/threonine protein kinase StkP, wild type) | 94 | 330 | 100 | 110 | 3200 | 900 |  |  |  | 
2 | GST-StkP K42M (kinase-inactive) K42M | 55 | 140 | 100 | 80 |  |  |  |  |  | 
3 | pcomC (comCDE promoter) |  |  |  |  |  |  | 21 | 375 | 74 | 371
